In article PMC5337904, “A novel cytochrome P450, CYP3201B1, is involved in (R)‐mandelonitrile biosynthesis in a cyanogenic millipede” (FEBS Open Bio, 2017):
Where two headings read alike, the source gives them in different places.

Tests used:
Conditions in all cases: 50 nM enzyme, 2 mM NADPH, 50 mM potassium phosphate pH 6.5, 35 °C, 5 min, with yeast P450 reductase
[1] = target: CYP3201B1 (Chamberlinius hualienensis, UniProt A0A1J1DVP9)
[2] = tested on: Cc1cccc(CC#N)c1; test: cells, lysate or membranes
[3] = tested on: Cc1ccccc1CC#N; test: cells, lysate or membranes

Sequence of CYP3201B1 (A0A1J1DVP9 1-501 limits assumed): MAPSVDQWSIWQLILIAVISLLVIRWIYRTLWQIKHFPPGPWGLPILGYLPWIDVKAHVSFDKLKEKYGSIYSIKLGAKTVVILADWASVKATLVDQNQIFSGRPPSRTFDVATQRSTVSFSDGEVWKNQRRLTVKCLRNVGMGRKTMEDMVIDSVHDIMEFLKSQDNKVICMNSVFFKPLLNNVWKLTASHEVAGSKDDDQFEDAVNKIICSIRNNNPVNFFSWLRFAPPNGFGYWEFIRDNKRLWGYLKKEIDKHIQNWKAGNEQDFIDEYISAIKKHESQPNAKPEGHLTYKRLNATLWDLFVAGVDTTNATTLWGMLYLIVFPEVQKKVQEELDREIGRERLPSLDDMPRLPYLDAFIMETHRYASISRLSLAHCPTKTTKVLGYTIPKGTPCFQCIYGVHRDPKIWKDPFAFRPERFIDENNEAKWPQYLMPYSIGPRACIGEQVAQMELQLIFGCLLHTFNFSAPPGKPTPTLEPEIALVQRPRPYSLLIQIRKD

N#CCc1ccccc1 [PAN]
Km ([1]; product (R)-mandelonitrile): 9.2 ± 2.3 µM

N#CCc1ccc(O)cc1 [4‐HydroxyPAN]
Km [1]: 15.8 ± 1.2 µM

CYP3201B1 (Chamberlinius hualienensis)
Km [2]: 6.9 ± 1.3 µM
kcat [2]: 1.09 ± 0.0433 s⁻¹
kcat/Km [2]: 158000 M⁻¹ s⁻¹
Km [3]: 6.6 ± 1.6 µM
kcat [3]: 1.12 ± 0.07 s⁻¹
kcat/Km [3]: 170000 M⁻¹ s⁻¹
